B1: Isoform 2 of Bardet-Biedl syndrome 7 protein (Homo sapiens), Q8IWZ6-2 (parent)
chain: MDLILNRMDYLQVGVTSQKTMKLIPASRHRATQKVVIGDHDGVVMCFGMKKGEAAAVFKTLPGPKIARLELGGVINTPQEKIFIAAASEIRGFTKRGKQFLSFETNLTESIKAMHISGSDLFLSASYIYNHYCDCKDQHYYLSGDKINDVICLPVERLSRITPVLACQDRVLRVLQGSDVMYAVEVPGPPTVLALHNGNGGDSGEDLLFGTSDGKLALIQITTSKPVRKWEIQNEKKRGGILCIDSFDIVGDGVKDLLVGRDDGMVEVYSFDNANEPVLRFDQMLSESVTSIQGGCVGKDSYDEIVVSTYSGWVTGLTTEPIHKESGPGEELKINQEMQNKISSLRNELEHLQYKVLQERENYQQSSQSSKAKSAVPSFGINDKFTLNKDDASYSLILEVQTAIDNVLIQSDVPIDLLDVDKNSAVVSFSSCDSESNDNFLLATYRCQADTTRLELKIRSIEGQYGTLQAYVTPRIQPKTCQVRQYHIKPLSLHQRTHFIDHDRPMNTLTLTGQFSFAEVHSWVVFCLPEVPEKPPAGECVTFYFQNTFLDTQLESTYRKGEGVFKSDNISTISILKDVLSKEATKRKINLNISYEINEVSVKHTLKLIHPKLEYQLLLAKKVQLIDALKELQIHEGNTNFLIPEYHCILEEADHLQEEYKKQPAHLERLYG
partner: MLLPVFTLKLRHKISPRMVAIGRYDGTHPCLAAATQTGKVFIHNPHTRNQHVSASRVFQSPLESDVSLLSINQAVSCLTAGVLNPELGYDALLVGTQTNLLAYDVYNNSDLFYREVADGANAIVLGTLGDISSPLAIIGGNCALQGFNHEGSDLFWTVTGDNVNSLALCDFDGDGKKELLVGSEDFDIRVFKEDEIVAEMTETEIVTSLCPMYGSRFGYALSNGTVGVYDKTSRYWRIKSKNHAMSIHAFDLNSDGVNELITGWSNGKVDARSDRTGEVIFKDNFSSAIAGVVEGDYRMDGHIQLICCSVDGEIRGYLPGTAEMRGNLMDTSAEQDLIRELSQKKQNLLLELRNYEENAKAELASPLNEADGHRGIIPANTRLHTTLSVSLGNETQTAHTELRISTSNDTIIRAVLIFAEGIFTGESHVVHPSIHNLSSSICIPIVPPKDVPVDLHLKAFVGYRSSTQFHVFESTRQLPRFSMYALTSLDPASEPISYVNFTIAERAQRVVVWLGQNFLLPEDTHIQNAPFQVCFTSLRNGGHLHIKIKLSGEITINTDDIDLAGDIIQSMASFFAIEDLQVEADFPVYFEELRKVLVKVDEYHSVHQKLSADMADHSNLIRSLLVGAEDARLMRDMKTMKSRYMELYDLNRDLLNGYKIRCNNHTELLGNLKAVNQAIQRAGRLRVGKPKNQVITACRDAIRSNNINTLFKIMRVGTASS

Variants of: B1
Conditions: with bbs2_human BBS2, Q9BXC9

Effect of a mutation on the interaction, with no effect:
W523K
W523E
S571A
S571K
S571E
T552E
T552K
T552A
T548A
T548K
T548E
P536A
P536E
P536K
R559K
R559E
R559A
G561A
G561E
G561K
V525E
V525A
V525K
C527E
C527A
C527K
V541E
V541A
V541K
Q553K
Q553A
Q553E
I570A
I570E
I570K
L528K
L528A
L528E
S556E
S556K
S556A
L550K
L550E
L550A
P535E
P535K
P535A
V531A
V531E
V531K
P529K
P529E
P529A
C540E
C540K
C540A
L580A
D551E
D551A
D551K
N569A
N569E
N569K
E555K
E555A
K534E
K534A
N547A
N547E
N547K
T542A
T542K
T542E
Q546A
Q546E
Q546K
I573K
I573A
I573E
K560E
K560A
A518K
A518E
L576E
L576K
L576A
E519K
E519A
G563E
G563K
G563A
F543K
F543A
F543E
F517K
D578E
D578K
D578A
K566E
K566A
S522K
S522A
F526K
F526A
F526E
T572A
T572E
T572K
A537E
A537K
S567A
S567K
S567E
D568A
D568E
D568K
I575A
I575K
I575E
E562K
E562A
F549A
F549E
F549K
T557K
T557E
T557A
L554K
L554A
L554E
K577A
K577E
V564A
V564E
V564K
Y558K
Y558A
Y558E
F565K
F565E
F565A
V520E
V520K
V520A
Y544A
Y544K
Y544E
E539A
E539K
H521K
H521E
H521A
E530A
E530K
F545A
F545E
F545K
V524K
V524E
V524A
P532K
P532A
P532E
S574A
S574E
S574K
V579A
V579K
V579E
G538K
G538E
G538A
E533K
E533A

Effect of a mutation on the interaction, disrupting interaction strength:
W523A
T548S
G561S
G561R
I570L
P529C
P529S
G563R
S522E
